Experimental data reported in US20060084157A1.

B1: Fe-hydrogenase HydA of Chlamydomonas reinhardtii (native mature enzyme) (protein)
chain: AAPAAEAPLSHVQQALAELAKPKDDPTRKHVCVQVAPAVRVAIAETLGLAPGATTPKQLAEGLRRLGFDEVFDTLFGADLTIMEEGSELLHRLTEHLEAHPHSDEPLPMFTSCCPGWIAMLEKSYPDLIPYVSSCKSPQMMLAAMVKSYLAEKKGIAPKDMVMVSIMPCTRKQSEADRDWFCVDADPTLRQLDHVITTVELGNIFKERGINLAELPEGEWDNPMGVGSGAGVLFGTTGGVMEAALRTAYELFTGTPLPRLSLSEVRGMDGIKETNITMVPAPGSKFEELLKHRAAARAEAAAHGTPGPLAWDGGAGFTSEDGRGGITLRVAVANGLGNAKKLITKMQAGEAKYDFVEIMACPAGCVGGGGQPRSTDKAITQKRQAALYNLDEKSTLRRSHENPSIRELYDTYLGEPLGHKAHELLHTHYVAGGVEEKDEKK

Legend:
[1] = target: Purified Fe-hydrogenase HydA of Scenedesmus obliquus (native enzyme) (Scenedesmus obliquus); assay: cell-based or functional assay
[2] = target: ferredoxin (source not stated, Table I)

Sequence of Purified Fe-hydrogenase HydA of Scenedesmus obliquus (native enzyme) (Scenedesmus obliquus) (chain, as listed by the source): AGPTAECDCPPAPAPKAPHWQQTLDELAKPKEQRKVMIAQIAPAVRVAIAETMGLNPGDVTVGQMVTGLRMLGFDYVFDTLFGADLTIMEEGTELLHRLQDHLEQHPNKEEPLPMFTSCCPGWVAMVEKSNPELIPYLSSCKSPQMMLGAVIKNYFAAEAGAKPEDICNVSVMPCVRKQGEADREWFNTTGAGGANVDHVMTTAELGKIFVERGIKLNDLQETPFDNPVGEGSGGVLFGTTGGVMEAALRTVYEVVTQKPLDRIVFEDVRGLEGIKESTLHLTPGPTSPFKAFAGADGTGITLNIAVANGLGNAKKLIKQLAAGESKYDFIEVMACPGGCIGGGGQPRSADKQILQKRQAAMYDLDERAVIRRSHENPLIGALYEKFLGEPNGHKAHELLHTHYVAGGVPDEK

Molecule | H2-evolving activity (in vitro, dithionite as reducing reagent) [1] [U/mg protein] | KM value (ferredoxin) [2] [µM]
Ferredoxin (PetF) of Chlamydomonas reinhardtii (from UniProt P07839 33-126) | 390 | 
Ferredoxin (PetF) of Scenedesmus obliquus | 420 | 
Spinach ferredoxin (PetF) (from UniProt P00221 51-147) | 350 | 
B1 |  | 35
